The source of these data is patent US20240309087A1 (SHANGHAI JUNSHI BIOSCIENCES, published 2024).

Where a chain is given by its changes, count along the chain named. Like-named read-outs stand apart in the source and are kept apart here.

Experiment [1] deals with T1, hCD112R mFC recombinant protein (human; murine, UniProt Q6DKI7 41-160).
T1 construct: range 41-160; expressed in 293E cells; also called hCD112R ECD mFC; hCD112R-ECD-mFC; not shown: murine IgG2a Fc domain (MX2-mFc vector)
T1 sequence (looked up): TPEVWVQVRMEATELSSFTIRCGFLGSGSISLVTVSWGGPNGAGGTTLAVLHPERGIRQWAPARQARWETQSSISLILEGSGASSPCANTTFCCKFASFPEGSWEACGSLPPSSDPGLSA
Kind of experiment: Biacore T200, antibody captured, hCD112R mFc injected. The procedure:
Biacore T200 was used to assay the binding affinity of the anti-CD112R hybridoma antibodies for the recombinant hCD112R mFc protein. […] antibody fragments (Jackson ImmunoResearch) were coupled to the surface of a CM5 chip, and the anti-CD112R hybridoma antibodies were each captured by using the chip, after which recombinant hCD112R mFc proteins at different concentrations were injected into the CM5 chip.
Background: In SPR one partner is held on a chip, and binding of the other changes the refractive index at the surface.

Experiment [2] deals with T1, hCD112R mFC recombinant protein. Description: FACS competition, hCD112R mFc on CHO CD112 cells. The procedure: Unbound antibodies were then washed with a staining buffer and the cells were incubated with 1% (v/v) goat anti-mouse IgG Fc fluorescent secondary antibodies (Jackson ImmunoResearch) prepared in a staining buffer at 4° C. for 30 min in the dark. Finally, the cells were collected by using a flow cytometer, and the fluorescent antibodies bound to the cell surface were detected. Raw data were analyzed by using FlowJo to obtain MFI values, and a four-parameter curve fitting was performed by using GraphPad Prism software to obtain IC₅₀ values.

Experiment [3] has the same target. Kind of experiment: FACS competition, hCD112R mFc on CHO CD112 cells. The gist of the method: (§1)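 CHO cells overexpressing human CD112 were co-incubated 30 min at 4 °C with hCD112R mFc (5 μg/mL) and humanized anti-CD112R antibodies (from 100 μg/mL, 3-fold, 10 points). Bound fusion protein detected with anti-mouse IgG Fc secondary by flow cytometry; IC50 from four-parameter fit of MFI. COM701 served as positive control, anti-KLH hu-IgG4 as negative.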
The source holds these as a separate data set.

In another experiment the target is T2, mouse CD112R antigen (mouse).
T2 construct: bought
Kind of experiment: ELISA on coated mouse CD112R, OD 450 nm, ambiguous fit of a nearly flat curve; unit from the axis. The procedure: Plates were coated with a recombinant cynomolgus monkey CD112R antigen (purchased from Acrobiosystems, Cat No. PVG-C5259) and a mouse CD112R antigen (purchased from Acrobiosystems, Cat No. PVG-M5257) at fixed concentrations, respectively, and the humanized anti-CD112R antibodies diluted in a gradient (initial concentration: 1 μg/mL, 2.5-fold gradient dilution, 12 concentration gradients in total) were added to bind to the antigens, HRP-conjugated mouse anti-human IgG4 Fc (Southern Biotech. 9200-05) was subjected to a 5000-fold dilution and used as detection antibody for detection. The color development was performed with 0.1 mg/mL TMB, and finally stopped with 2 M hydrochloric acid. […] EC₅₀ was obtained by fitting with a four-parameter logistic regression (4PL) model.
In general terms: In an ELISA, binding on a coated surface is turned into a signal by an enzyme label.

Experiment [4] concerns the target T3, recombinant cynomolgus monkey CD112R antigen (cynomolgus monkey, UniProt A0A2K5WVV8 1-322).
T3 construct: bought
T3 sequence: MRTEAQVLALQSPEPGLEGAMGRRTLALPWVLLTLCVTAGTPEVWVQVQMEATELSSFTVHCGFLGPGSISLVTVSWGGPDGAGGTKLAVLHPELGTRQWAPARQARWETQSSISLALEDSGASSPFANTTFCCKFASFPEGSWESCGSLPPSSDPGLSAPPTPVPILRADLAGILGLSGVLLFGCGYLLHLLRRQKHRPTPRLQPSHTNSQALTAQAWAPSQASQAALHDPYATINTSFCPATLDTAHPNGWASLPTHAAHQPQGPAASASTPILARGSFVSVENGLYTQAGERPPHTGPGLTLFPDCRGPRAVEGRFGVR
Description: ELISA, coated cynomolgus monkey CD112R. The procedure: Plates were coated with a recombinant cynomolgus monkey CD112R antigen (purchased from Acrobiosystems, Cat No. PVG-C5259) and a mouse CD112R antigen (purchased from Acrobiosystems, Cat No. PVG-M5257) at fixed concentrations, respectively, and the humanized anti-CD112R antibodies diluted in a gradient (initial concentration: 1 μg/mL, 2.5-fold gradient dilution, 12 concentration gradients in total) were added to bind to the antigens, HRP-conjugated mouse anti-human IgG4 Fc (Southern Biotech. 9200-05) was subjected to a 5000-fold dilution and used as detection antibody for detection. The color development was performed with 0.1 mg/mL TMB, and finally stopped with 2 M hydrochloric acid. The plates were read at 420 nm/620 nm. EC₅₀ was obtained by fitting with a four-parameter logistic regression (4PL) model.

Experiment [5] has as its target T1, hCD112R mFC recombinant protein. Description: ELISA, coated hCD112R-ECD-mFC. The gist of the method:
(§2)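 Plates coated with hCD112R-ECD-mFC at 1.5 μg/mL; humanized antibodies titrated from 1 μg/mL, 2.5-fold, 12 points. Bound antibody detected with HRP anti-human IgG Fc and TMB, read at 420/620 nm; EC50 from 4PL fit, COM701 and anti-KLH hu-IgG4 as controls.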

The target is the same in experiment [6]. Description: ELISA, coated hCD112R-ECD-mFC; EC50 COM701/EC50 antibody. The gist of the method: as §2
For experiment [7] the target is unchanged. Kind of experiment: FACS competition, hCD112R mFc on CHO CD112 cells; IC50 COM701/IC50 antibody. The gist of the method:
as §1

Experiment [8] concerns the target T4, human CD112R on Jurkat CD112R effector cells (human, UniProt Q6DKI7 1-326).
T4 sequence (looked up): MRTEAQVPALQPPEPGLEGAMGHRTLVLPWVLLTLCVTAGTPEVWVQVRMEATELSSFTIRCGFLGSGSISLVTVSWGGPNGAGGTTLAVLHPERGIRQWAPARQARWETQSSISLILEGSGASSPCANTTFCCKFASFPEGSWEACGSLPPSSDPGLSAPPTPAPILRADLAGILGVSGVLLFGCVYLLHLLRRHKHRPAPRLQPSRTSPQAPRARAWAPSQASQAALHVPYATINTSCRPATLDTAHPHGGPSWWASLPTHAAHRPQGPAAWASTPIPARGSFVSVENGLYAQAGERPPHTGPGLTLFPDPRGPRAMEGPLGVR
Kind of experiment: cell-based or functional assay.

The target in experiment [9] is T4, human CD112R on Jurkat CD112R effector …. Description: cell-based or functional assay. This is another data set of the same source.

B1: 5B1.1 (antibody, V domains shown)
VH: EVQLQQSGAELVRSGTSVTLSCTASGFNIRDYFIHWVKQRPEQGLEWIGWIIPASGDTDCAPIFQGKATLTADTFSNTAYLHLNSLTSEDTAVYYCNTWVWSPYAVDYWGQGTSVTVSS
VL: DIVMTQFPSSLSVPVGEKVTMNCKSSQSLLNSGNQKNFLAWYQQKPGQPPKLLIYGASTRESGVPYRFTGSGSGTDFTLTISSVQAEDLAVYYCQNDHSYPWTFGGGTKLEIK
notes: murine hybridoma antibody
With B1, in experiment [1], the Kd (as a rule, the constant that tells how readily two partners part at equilibrium) stood at 0.0163 nM. Moreover, the IC50 (usually the midpoint of a concentration-inhibition curve) in experiment [2] is 0.147 µg/mL.

B2: 1D11.1 (antibody, V domains shown)
VH: EVQLQQSGPELVKPGASVKISCKASGYPFINYNIHWLRQSRGKSLEWIGYVYPYNGVPGYNQKFKSKATLTADNSFSTAYMEFRSLTSEDSAVYFCARERGRDYFDSWGQGTSLTVSS
VL: DIQLTQSPASLSVSVGETVTITCRVSANIYSNLVWYHQRQGKSPQLLVYGGTNLADGVPSRFSGSGSGTQFSLKINSLQSEDFGSYHCQHFWSTPYTFGGGTKLEIK
notes: murine hybridoma antibody
For B2, the Kd in [1] came to 0.0236 nM. Moreover, the IC50 in experiment [2] was determined as 0.207 µg/mL.

B3: Hu16 (antibody, human IgG4 S228P, kappa)
heavy: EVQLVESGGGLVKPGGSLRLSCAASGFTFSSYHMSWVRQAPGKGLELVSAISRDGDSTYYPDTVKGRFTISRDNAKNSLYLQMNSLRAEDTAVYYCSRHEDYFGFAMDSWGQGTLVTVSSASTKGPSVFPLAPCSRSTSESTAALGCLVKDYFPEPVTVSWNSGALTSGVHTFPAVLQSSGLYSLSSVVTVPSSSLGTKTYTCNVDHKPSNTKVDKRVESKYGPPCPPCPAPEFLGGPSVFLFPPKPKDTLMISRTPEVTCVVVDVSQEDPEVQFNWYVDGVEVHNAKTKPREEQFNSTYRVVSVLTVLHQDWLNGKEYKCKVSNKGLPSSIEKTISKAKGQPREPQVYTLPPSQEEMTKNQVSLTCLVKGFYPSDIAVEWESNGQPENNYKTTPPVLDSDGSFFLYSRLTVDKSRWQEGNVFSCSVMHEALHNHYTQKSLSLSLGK
light: DIVMTQSPDSLAVSLGERATINCKASQSVSNDVAWYQQKPGQPPKLLIYYVSHRFTGVPDRFSGSGSGTDFTLTISSLQAEDVAVYFCHQAYRSPWTFGQGTKLEIKRTVAAPSVFIFPPSDEQLKSGTASVVCLLNNFYPREAKVQWKVDNALQSGNSQESVTEQDSKDSTYSLSSTLTLSKADYEKHKVYACEVTHQGLSSPVTKSFNRGEC
notes: humanized; 5C10VH1 + 6A10VL2
Consider B3, for which the IC50 in experiment [3] is 2.5 µg/mL. The EC50 (in general, the midpoint of the concentration-response curve) in the experiment with mouse CD112R antigen is about 683 µg/mL; in experiment [4], 0.00292 µg/mL; in experiment [5] it was 0.00426 µg/mL. The “Relative activity (%)” value in [6] worked out at 126%; in experiment [7], 143%. The “EC50, CD112R/CD112 reporter” value in experiment [8] worked out at 0.0196 µg/mL. Also, in experiment [8], the “Relative activity (%), EC50 COM701/EC50 antibody” value came out at 253%.

B4: 7C2.1 (antibody, V domains shown)
VH: DVKLVESGGGLVKLGGSLKLSCAASGFTFSSYHMSWIRQTPEKRLELVAAINSNGINTYYLDTVKGRFTISRDNAKNTLYLQMSSLKSEDTALYYCARHEDYYGFAMDYWGQGTSVTVSS
VL: SIVMTQTPKFLLVSAGDRVTITCKASQSVSNDVAWYQQKPGQSPKLLMYYVSNRFTGVPDRFTGSGYGTDFTFTINTVQAEDLAVYFCQQAYRSPWTFGGGTKLEIK
Turning to B4, the “EC50, CD112R/CD112 NFAT-luciferase reporter” value in [9] was found to be 0.0379 µg/mL.

B5: 5C10.1 (antibody, V domains shown)
VH: DVKLVESGGGLVKLGGSLKLSCAASGFTFSSYHMSWVRQTPEKRLELVAAISRDGDSTYYPDTVKGRFTISRDDAENTLYLQMSSLKSEDTALYYCSRHEDYFGFAMDSWGQGTSVTVSS
VL: B4 VL with S30T, R54H, F55Y, T63I, N76S
With B5, in [9], the “EC50, CD112R/CD112 NFAT-luciferase reporter” value turned out to be 0.0404 µg/mL.

B6: 3D2.1 (antibody, V domains shown)
VH: B4 VH with K3Q, A23V, G55D, N74I, Y80H
VL: B2 VL
Consider B6, for which, in [9], the “EC50, CD112R/CD112 NFAT-luciferase reporter” value is 0.0493 µg/mL.

B7: 6A10.1 (antibody, V domains shown)
VH: B4 VH with I37V, G55V, N57S
VL: B4 VL with Q38E, N53H, Q89H
Take B7: in experiment [9], the “EC50, CD112R/CD112 NFAT-luciferase reporter” value was determined as 0.0507 µg/mL.

B8: 4E5.1 (antibody, V domains shown)
VH: EVMLVESGGGLVKPGGSLKLSCAASGFTFSNYIMSWVRQTPDMRLEWVATISSGGSSTYYVDRVKGGFPFSRDSVKYILYVHTSSLRSADTAIYYCAKHEDWDPLYYYSMDYWGQGTSVTVSS
VL: QIVLTQSPTVMSASPGDKVTMTCSASSSVSYMYWFQQKPGSSPRLLIYDTSHLAFGVPSRFSGSRSGTSYSLTISRMEAEDTATYYCQQWTTYPLTFGAGTKLELK
notes: murine hybridoma antibody
With B8, the Kd in experiment [1] came to 0.00926 nM. Besides, the “EC50, CD112R/CD112 NFAT-luciferase reporter” value in experiment [9] was 0.0552 µg/mL. Also, the IC50 in experiment [2] stood at 0.111 µg/mL.

B9: Hu59 (antibody, human IgG4 S228P, kappa)
heavy: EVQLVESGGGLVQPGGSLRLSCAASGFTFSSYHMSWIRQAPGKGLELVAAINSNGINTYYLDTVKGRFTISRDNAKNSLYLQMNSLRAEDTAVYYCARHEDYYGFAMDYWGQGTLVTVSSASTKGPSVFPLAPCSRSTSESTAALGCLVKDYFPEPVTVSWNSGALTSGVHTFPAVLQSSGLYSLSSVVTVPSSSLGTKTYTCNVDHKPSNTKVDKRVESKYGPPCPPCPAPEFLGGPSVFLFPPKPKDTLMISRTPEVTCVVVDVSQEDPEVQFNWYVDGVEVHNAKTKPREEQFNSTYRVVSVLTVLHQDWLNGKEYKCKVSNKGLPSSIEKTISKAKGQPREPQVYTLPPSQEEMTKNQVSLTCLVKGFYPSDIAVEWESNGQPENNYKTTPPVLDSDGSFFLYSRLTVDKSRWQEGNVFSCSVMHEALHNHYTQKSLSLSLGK
light: DIQMTQSPSSLSASVGDRVTITCKASQSVSNDVAWYQQKPGKAPKLLIYYVSNRFTGVPSRFSGSGSGTDFTLTISSLQPEDFATYFCQQAYRSPWTFGQGTKLEIKRTVAAPSVFIFPPSDEQLKSGTASVVCLLNNFYPREAKVQWKVDNALQSGNSQESVTEQDSKDSTYSLSSTLTLSKADYEKHKVYACEVTHQGLSSPVTKSFNRGEC
notes: humanized; 7C2VH2 + 7C2VL1
For the molecule B9, in experiment [3], the IC50 is 3.17 µg/mL. In addition, the results for the EC50 (with mouse CD112R antigen; in [4]; in experiment [5]) were about 1970 µg/mL, 0.00262 µg/mL and 0.00496 µg/mL, respectively. The entries for the “Relative activity (%)” value in experiment [6] and in [7] were 169% and 76%, respectively. Also, the “EC50, CD112R/CD112 reporter” value in experiment [8] came out at 0.0188 µg/mL. Moreover, the “Relative activity (%), EC50 COM701/EC50 antibody” value in experiment [8] was found to be 312%.

B10: 2G10.1 (antibody, V domains shown)
VH: QVQLQQSGAELVKPGASVKLSCKASGYTFTSHYMYWLKQRPGQGLEWIGEINPSNGDTKFNEKFKSKATLTVDKSSSTAYMQLSSLTSEDSAVYYCTREKDAFSALDYWGQGTSVTDSS
VL: DIQMIQSPSSMFASLGDRVSLSCRASQGIRGHLDWYQQKPGGTIKLLIYSTSILNFGVPSRFSGSGSGSDYSLTISSLESEDFADYYCLQRNAYPLTFGAGTKLELK
notes: murine hybridoma antibody
B10: the Kd in [1] was found to be 0.0302 nM. The “EC50, CD112R/CD112 NFAT-luciferase reporter” value in [9] was determined as 0.0729 µg/mL. In experiment [2], the IC50 was determined as 0.261 µg/mL.
